Assay results taken from patent US20090291088A1, “THERAPEUTIC COMBINATIONS OF ANTI-IGF-1R ANTIBODIES AND OTHER COMPOUNDS” (Biogen Idec MA Inc., priority 2008, published 2009).

Columns and labels:
[1] = biological target: human IGF-1R(1-903)-Fc (human) (UniProt P08069); assay: competition ELISA: biotinylated hIGF-1R-Fc on streptavidin plate, 320 nM human IGF-1 His, detection with anti-His-HRP; blocked ligand human IGF-1 His
[2] = biological target: human IGF-1R(1-903)-Fc (human) (UniProt P08069); assay: ELISA on hIGF-1R-Fc, competitor Zenon-labelled αIR3
[3] = biological target: human IGF-1R(1-903)-Fc (human) (UniProt P08069); assay: ELISA on hIGF-1R-Fc, competitor biotinylated M14-G11
[4] = biological target: human IGF-1R(1-902)-His10 (human) (UniProt P08069); assay: ELISA, plate coated with rh-IGF-1R, bound antibody detected with anti-mouse IgG Fc-HRP

IC50 (read off the curve) [1]: 5 nM
percent competition (relative to self-competition) [2]: 90 to 100%
percent competition (relative to self-competition) [3]: 90 to 100%
EC50 (read off the curve) [4]: 0.2 nM
Substance: αIR3 (antibody)
